The text below walks through data of patent US20090325168.

For data set [1], the target named is T1, Fm-CGD2D, Fm-K[F1]DBJGDEVDGIDGJPK[F1]GY (compound 11 of Table 12).
T1 chain: KDXXGDEVDGIDGXPKGY

For data set [2], the target named is T2, Fm-G2D2D, Fm-K[F1]DBGDEVDGIDGPK[F1]GY (compound 10 of Table 12).
T2 chain: KDXGDEVDGIDGPKGY

B1: CPP32 protease (protein)
chain: SGISLDNSYKMDYPEMGLCIIINNKNFHKSTGMTSRSGTDVDAANLRETFRNLKYEVRNKNDLTREEIVELMRDVSKEDHSKRSSFVCVLLSHGEEGIIFGTNGPVDLKKITNFFRGDRCRSLTGKPKLFIIQACRGTELDCGIETDSGVDDDMACHKIPVEADFLYAYSTAPGYYSWRNSKDGSWFIQSLCAMLKQYADKLEFMHILTRVNRKVATEFESFSFDATFHAKKQIPCIVSMLTKELYFYH
As for B1, in data set [1], the “hydrolysis rate, fold increase over compound 10 (Fm-G2D2D)” value was “the hydrolysis rate was further increased by ca. 3-fold over the above glycine residue insertion”; the “substrate hydrolysis rate, fold increase over compound 4 (Fm-DEVD)” value is “overall at least a 9-fold increase in substrate hydrolysis rate was accomplished (compounds 4 and 11, Table 12)”. For the same protein, the “hydrolysis rate, fold increase over compound 4 (Fm-DEVD)” value in data set [2] was “The hydrolysis rate was increased by 3-fold between compounds 4 ... and 10”.
